Source: patent US20090281024A1 (RAPTOR PHARMACEUTICALS, published 2009)
Changes are numbered by the printed parent chain. Numbers in names are those of the source.

B1: RAP d3 K270E (ligand, human, UniProt P30533 235-353, looked up)
chain: LDRLRRVSHQGYSTEAEFEEPRVIDLWDLAQSANLTDKELEAFREELKHFEAKIEKHNHYQKQLEIAHEELRHAESVGDGERVSRSREKHALLEGRTKELGYTVKKHLQDLSGRISRAR
notes: range 201-319 (mature RAP numbering); Forward mutant of m1; same construct; also called RAP K270E; not shown: N-terminal hexahistidine and S-peptide tags of pET30(+)a
B2: RAP d3 E251K, K270E (ligand, human, UniProt P30533 235-353, looked up)
chain: B1 chain with E51K
notes: range 201-319 (mature RAP numbering); Forward mutant of m1; same construct; also called RAP E251K, K270E; not shown: N-terminal hexahistidine and S-peptide tags of pET30(+)a
B3: RAP d3 K256A, K270E (ligand, human, UniProt P30533 235-353, looked up)
chain: B1 chain with K56A
notes: range 201-319 (mature RAP numbering); Forward mutant of m1; same construct; also called RAP K256A, K270E; not shown: N-terminal hexahistidine and S-peptide tags of pET30(+)a
B4: MegaRAP1 d3 (designed binder)
chain: B1 chain with S13T, E17K, H49Y, E51K, K56A
notes: range 201-319 (mature RAP numbering); d3 of the variant selected on LRP2 CR89; also called RAPv2A d3; RAP v2A; not shown: N-terminal hexahistidine and S-peptide tags of pET30(+)a
B5: RAP d3 E251K (ligand, human, UniProt P30533 235-353, looked up)
chain: B1 chain with E51K, E70K
notes: range 201-319 (mature RAP numbering); Forward mutant of m1; same construct; also called RAP E251K; not shown: N-terminal hexahistidine and S-peptide tags of pET30(+)a
B6: RAP d3 H249Y (ligand, human, UniProt P30533 235-353, looked up)
chain: B1 chain with H49Y, E70K
notes: range 201-319 (mature RAP numbering); Forward mutant of m1; same construct; also called RAP H249Y; not shown: N-terminal hexahistidine and S-peptide tags of pET30(+)a
B7: RAP d3 E217K (ligand, human, UniProt P30533 235-353, looked up)
chain: B1 chain with E17K, E70K
notes: range 201-319 (mature RAP numbering); Forward mutant of m1; same construct; also called RAP E217K; not shown: N-terminal hexahistidine and S-peptide tags of pET30(+)a
B8: RAP d3 E251K, K256A, K270E (ligand, human, UniProt P30533 235-353, looked up)
chain: B1 chain with E51K, K56A
notes: range 201-319 (mature RAP numbering); Forward mutant of m1; same construct; also called RAP E251K, K256A, K270E; not shown: N-terminal hexahistidine and S-peptide tags of pET30(+)a
B9: MegaRAP1 d3 T213S revertant (designed binder)
chain: B1 chain with E17K, H49Y, E51K, K56A
B10: MegaRAP1 d3 K217E revertant (designed binder)
chain: B1 chain with S13T, H49Y, E51K, K56A
B11: MegaRAP1 d3 E270K revertant (designed binder)
chain: B1 chain with S13T, E17K, H49Y, E51K, K56A, E70K
B12: MegaRAP1 d3 A256K, E270K double revertant (designed binder)
chain: B1 chain with S13T, E17K, H49Y, E51K, E70K
B13: MegaRAP1 d3 K251E, E270K double revertant (designed binder)
chain: B1 chain with S13T, E17K, H49Y, K56A, E70K
B14: LRP2 CR89 R1088D (receptor)
chain: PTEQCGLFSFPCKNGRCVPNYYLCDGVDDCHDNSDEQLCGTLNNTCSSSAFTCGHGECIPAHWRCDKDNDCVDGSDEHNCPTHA
notes: also called YVWD; not shown: N-terminal hexahistidine and S-peptide tag stretch of pET30(+)a
B15: LRP2 CR89 Y1042W V1047D (receptor)
chain: PTEQCGLFSFPCKNGRCVPNYWLCDGDDDCHDNSDEQLCGTLNNTCSSSAFTCGHGECIPAHWRCDKRNDCVDGSDEHNCPTHA
notes: also called WDWR; not shown: N-terminal hexahistidine and S-peptide tag stretch of pET30(+)a
B16: LRP2 CR89 Y1042W R1088D (receptor)
chain: B15 chain with D27V, R68D
notes: also called WVWD; not shown: N-terminal hexahistidine and S-peptide tag stretch of pET30(+)a
B17: LRP2 CR2728 (receptor, human, UniProt P98164 3552-3631, looked up)
chain: FCRLGQFQCSDGNCTSPQTLCNAHQNCPDGSDEDRLLCENHHCDSNEWQCANKRCIPESWQCDTFNDCEDNSDEDSSHCA
notes: domain: CR2728; not shown: N-terminal hexahistidine and S-peptide tags of pET30(+)a
B18: LRP2 CR3031 (receptor)
chain: not shown
notes: domain: CR3031; not shown: N-terminal hexahistidine and S-peptide tags of pET30(+)a
B19: LRP2 CR3536 (receptor)
chain: not shown
notes: domain: CR3536; the primers (LRP2CR35F, LRP2CR36R) fit CR3536; not shown: N-terminal hexahistidine and S-peptide tags of pET30(+)a

Target: T1, LRP1 CR3-5 (human)
T1 construct: range 852-973; also called L1 CR3-5; LRP1 CR3-S [sic]
T1 sequence (Q07954 852-973): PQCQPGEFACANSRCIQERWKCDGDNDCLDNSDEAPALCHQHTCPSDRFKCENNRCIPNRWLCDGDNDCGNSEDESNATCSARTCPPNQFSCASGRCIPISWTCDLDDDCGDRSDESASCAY
Assay: solid-phase assay, coated CR protein
Procedure: (§1) Wells were washed with TBSTC and bound ligands detected with polyclonal anti-RAP (BP41/42, 1:1,000, BioMarin). Excess primary antibody was removed and wells washed before incubation with the secondary antibody, HRP-conjugated goat anti rabbit IgG (Bio-Rad). After washing, TMB substrate solutions (Bio-Rad) were added to detect HRP. Color development was stopped with 1N HCl. Absorption at 450 nm was measured with a microplate spectrophotometer (Molecular Devices). Data were plotted and Kd values derived by non-linear regression with the assumption of single-site binding (GraphPad Prism).
Next, the binding of RAP d3 and MegaRAP1 d3 proteins to LRP1 CR3-5 and LRP2 CR89 was assessed. […] In all cases, 10 mM EGTA prevented binding of both RAP d3 and MegaRAP1 d3 to CR proteins. Since calcium was the only divalent metal ion present in the binding buffer, this observation is consistent with both RAP d3 and MegaRAP1 d3 binding to calcium-loaded CR pairs. […] Therefore, wild-type RAP d3 and MegaRAP1 d3 have inverted binding preferences for these two receptor fragments.

| Binder | % max binding |
| --- | --- |
| B1 | 4% |
| B2 | 4% |
| B3 | 2% |
| B4 | 4% |
| B5 | 100% |
| B6 | 90% |
| B7 | 91% |
| B8 | 2% |
| B9 | 2% |
| B10 | 2% |
| B11 | 85% |
| B12 | 93% |
| B13 | 16% |

Target: B4
Assay: solid-phase assay, coated CR protein
Procedure: as §1
One premise of this work was that amino acids at A, C, A′ and C′ within the calcium-binding loops of a CR pair were key determinants of binding affinity for RAP and would be similarly important for binding of RAP variants. To test this idea, mutant LRP2 CR89 were prepared in which the native, non-canonical residues at these positions were sequentially substituted with the non-native, canonical residues. As defined above, the A, C, A′, C′ string for LRP2 CR89 is YVWR. Mutants included LRP2 CR89Y1042W (WVWR), LRP2 CR89V1047D (YDWR), LRP2 CR89R1088D (YVWD), LRP2 CR89V1047D R1088D (YDWD), LRP2 CR89 Y1042W V1047D R1088D (WDWD), LRP2 CR89Y1042W V1047D (WDWR), LRP2 CR89Y1042W R1088D (WVWD). Binding to both RAP d3 and MegaRAP1 d3 were measured for each LRP2 CR89 mutant by solid-phase assay. […] The A′ position in LRP2 CR89 is a tryptophan, the canonical residue for wild-type RAP d3 binding, and was not mutated in our studies. […] We did see a small increase in binding of RAP d3 to the WVWD and WDWD combinations at A, C, A′ and C′.

| Binder | Kd |
| --- | --- |
| B14 | 78 nM |

Target: B4
Assay: solid-phase binding assay: LRP2 CR89 variant coated on the plate, d3 ligand in solution, anti-RAP detection, absorbance
Procedure: as §1, with “RAP ligands were then incubated with the immobilized receptor at a range of concentrations for 2 hours in the above blocking buffer supplemented with 0.05% Tween-20 at room temperature. Control wells contained no added ligand. As an additional control, to determine whether the absence of calcium affected binding, 10 mM EGTA was included in the incubation medium for some samples. Wells” for “Wells”
One premise of this work was that amino acids at A, C, A′ and C′ within the calcium-binding loops of a CR pair were key determinants of binding affinity for RAP and would be similarly important for binding of RAP variants. […] Binding to both RAP d3 and MegaRAP1 d3 were measured for each LRP2 CR89 mutant by solid-phase assay. […]

| Binder | binding result |
| --- | --- |
| B15 | no binding (tested: 100 nM) |
| B16 | no binding (tested: 100 nM) |

Target: T2, RAP d3 (wild-type third domain of the receptor-associated protein) (human, UniProt P30533 235-353)
T2 construct: range 201-319 (mature RAP numbering); Expressed in E. coli from pET30(+)a; also called wild-type RAP d3; not shown: N-terminal hexahistidine and S-peptide tags of pET30(+)a
T2 sequence (looked up): B1 chain with E70K
Assay: solid-phase binding assay: CR protein coated on the plate, d3 ligand at 80 nM, anti-RAP detection, blank-corrected absorbance
Procedure: (§2) RAP d3, MegaRAP1 d3, VRAP2 d3, MatRAP1d3 and MatRAP2 d3 were each incubated at 80 nM concentrations with LRP1 CR3-5, LRP6 CR12, LRP6 CR23, LRP6 CR1-3, LRP2 CR89, LRP2 CR2728, LRP2 CR3031, LRP2 CR3435, LRP2 CR34-36, VLDLR CR78, VLDLR CR6-8, MAT CR12, MAT CR23 and MAT CR34. Samples were tested twice, in duplicate, and values combined. Means and standard deviations were then calculated. Blank values obtained from wells incubated in the absence of ligand were used to correct absorbance data.
(§3) Solid phase binding assays—Purified, refolded CR protein (1 μg) was bound to Nunc Maxisorp™ 96-well plates in TBS pH 8 supplemented with 5 mM CaCl₂ (TBSC) overnight at 4° C. Wells were washed with TBSC and then blocked with TBSC containing 2% bovine serum albumin (BSA). RAP ligands were then incubated with the immobilized receptor at a range of concentrations for 2 hours in the above blocking buffer supplemented with 0.05% Tween-20 at room temperature. Control wells contained no added ligand. As an additional control, to determine whether the absence of calcium affected binding, 10 mM EGTA was included in the incubation medium for some samples. Wells were washed with TBSTC and bound ligands detected with polyclonal anti-RAP (BP41/42, 1:1,000, BioMarin). Excess primary antibody was removed and wells washed before incubation with the secondary antibody, HRP-conjugated goat anti rabbit IgG (Bio-Rad). After washing, TMB substrate solutions (Bio-Rad) were added to detect HRP. Color development was stopped with 1N HCl. Absorption at 450 nm was measured with a microplate spectrophotometer (Molecular Devices). Data were plotted and Kd values derived by non-linear regression with the assumption of single-site binding (GraphPad Prism).
(§4) The apparent dissociation constant for binding of VRAP1d3 to VLDLR CR78 was determined to be […]. We then compared binding of RAP d3, MegaRAP1 d3, VRAP1d3, MatRAP1d3 and MatRAP2 d3, each at a concentration of 80 nM, to fourteen CR pairs or triplets, including LRP1 CR3-5, LRP2 CR89, LRP2 CR2728, LRP2 CR3031, LRP2 CR34-36, LRP2 CR3536, VLDLR CR78, VLDLR CR6-8, LRP6 CR1-3, LRP6 CR12, LRP6 CR23, MAT CR12, MAT CR23 and MAT CR34 (FIG. 7).

| Binder | binding result |
| --- | --- |
| B17 | no binding (tested: 80 nM) |
| B18 | no binding (tested: 80 nM) |

Target: B4
Assay: as above
Procedure: as §2, §3, §4

| Binder | binding result |
| --- | --- |
| B17 | no binding (tested: 80 nM) |
| B19 | no binding (tested: 80 nM) |
| B18 | no binding (tested: 80 nM) |
